# In patent US20130089513A1 (MEDEXGEN, published 2013):
# Substitutions are numbered along the chain they refer to. Names and notes keep the numbering of the source.
# T1: G-CSF receptor linked to Fc domain of human IgG (human, UniProt Q99062 25-627, limits assumed)
# T1 sequence (looked up): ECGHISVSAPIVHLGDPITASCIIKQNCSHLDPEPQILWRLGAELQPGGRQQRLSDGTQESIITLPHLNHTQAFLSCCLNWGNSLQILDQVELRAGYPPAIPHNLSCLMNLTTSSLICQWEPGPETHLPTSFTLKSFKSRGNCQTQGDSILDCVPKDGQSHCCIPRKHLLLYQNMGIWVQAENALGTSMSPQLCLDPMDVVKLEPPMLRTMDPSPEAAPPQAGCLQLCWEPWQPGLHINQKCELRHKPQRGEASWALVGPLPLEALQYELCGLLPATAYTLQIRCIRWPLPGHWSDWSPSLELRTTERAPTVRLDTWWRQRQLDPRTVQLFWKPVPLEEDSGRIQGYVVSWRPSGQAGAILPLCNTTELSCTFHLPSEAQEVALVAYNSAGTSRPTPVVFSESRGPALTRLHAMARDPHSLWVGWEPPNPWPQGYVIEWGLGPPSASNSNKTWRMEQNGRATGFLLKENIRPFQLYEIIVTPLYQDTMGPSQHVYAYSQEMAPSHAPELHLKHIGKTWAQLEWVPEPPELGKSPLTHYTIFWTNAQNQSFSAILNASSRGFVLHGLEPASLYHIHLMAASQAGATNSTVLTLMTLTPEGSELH
# B1: wild type G-CSF (ligand)
# chain: TPLGPASSLPQSFLLKCLEQVRKIQGDGAALQEKLCATYKLCHPEELVLLGHSLGIPWAPLSSCPSQALQLAGCLSQLHSGLFLYQGLLQALEGISPELGPTLDTLQLDVADFATTIWQQMEELGMAPALQPTQGAMPAFASAFQRRAGGVLVASHLQSFLEVSYRVLRHLAQP
# notes: cDNA from leukocytes of healthy people; expressed in CHO-K1 cells; also called G-CSF wild type
# B2: G-CSF-[F140V] (ligand)
# chain: B1 chain with F140V
# notes: G-CSF mutein expressed in CHO-K1 cells; also called G-CSF-[F140VD]
# B3: G-CSF F13V (ligand)
# cytokine chain: B1 chain with F13V
# notes: used as CHO-K1 culture supernatant
# B4: G-CSF F113V (ligand)
# cytokine chain: B1 chain with F113V
# notes: as for B3
# B5: G-CSF-[F160V] (ligand)
# chain: B1 chain with F160V
# notes: G-CSF mutein expressed in CHO-K1 cells
# Biological target: T1, G-CSF receptor linked to Fc domain of …
# Assay: ELISA on coated G-CSF receptor-Fc, done like the TPO ELISA
row,EC50 (read off the curve) [µg/mL],Binder
1,~0.04,B1
2,~0.06,B2
3,~0.03,B3
4,~0.06,B4
5,~0.04,B5
